In assay [1] the target is T1, biotinylated CD200R1 (UniProt Q8TD46 29-265, biotin (site not stated)).
T1 construct: CD200R1 (CD200 receptor 1), soluble biotinylated protein; Held on streptavidin Donor beads in the AlphaLISA; also called CD200R1-(biot)
T1 sequence (looked up): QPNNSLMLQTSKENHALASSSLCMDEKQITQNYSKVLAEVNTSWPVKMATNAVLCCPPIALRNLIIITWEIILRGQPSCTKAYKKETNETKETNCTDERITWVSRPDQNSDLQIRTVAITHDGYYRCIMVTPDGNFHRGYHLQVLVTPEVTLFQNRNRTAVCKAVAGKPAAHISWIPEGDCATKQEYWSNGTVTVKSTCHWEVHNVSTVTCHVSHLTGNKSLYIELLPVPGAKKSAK
The assay is described as follows: AlphaScreen or HTRF; AlphaLISA; 3 nM CD200R1-(biot) with a dose response of His-tagged BOC1, its mutants, CD200 or P352 (0.1 to 300 nM by the legend, 0.1 to 100 nM by the table's footnote); fit 'One site-total' (GraphPad Prism). (In general: Alpha assays give light when donor and acceptor beads are brought close together.)

Assay [2] concerns the target T1, biotinylated CD200R1. The assay is described as follows: AlphaScreen or HTRF; AlphaLISA; 3 nM CD200R1-(biot) with a dose response (0.1 to 100 nM) of the His-tagged protein; fit 'One site-total' (GraphPad Prism).
Assay [3] concerns the target CD200R1 on human monocytes, MoDCs and MDSCs (human (endogenous in primary monocytes, MoDCs, MDSCs)) (UniProt Q8TD46).

Chain of CD200R1 on human monocytes, MoDCs and MDSCs (human (endogenous in primary monocytes, MoDCs, MDSCs)) (Q8TD46 25-348): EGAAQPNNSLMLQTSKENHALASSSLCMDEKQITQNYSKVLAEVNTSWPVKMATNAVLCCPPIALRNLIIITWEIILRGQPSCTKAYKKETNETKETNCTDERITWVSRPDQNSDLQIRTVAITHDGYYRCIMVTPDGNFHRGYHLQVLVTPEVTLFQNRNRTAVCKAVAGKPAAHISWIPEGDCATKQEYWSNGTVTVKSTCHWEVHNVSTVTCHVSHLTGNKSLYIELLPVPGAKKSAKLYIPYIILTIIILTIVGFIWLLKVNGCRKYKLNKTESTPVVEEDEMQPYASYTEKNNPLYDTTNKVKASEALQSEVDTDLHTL

For orientation: Kd means the free concentration of one partner at which half of the binding sites on the other are occupied at equilibrium, for simple one-to-one binding. On to BOC1-m1 (Glu19) (natural protein), for which the Kd in assay [1] stood at 0.96 nM. Take BOC1-His (natural protein): the equilibrium dissociation constant (Kd) in assay [2] and in assay [1] was 0.38 nM each time. In assay [3], the inhibition of the differentiation of human monocytes into MDSCs (rhIL-6 + rhGM-CSF, 7 days; BOC1 at 1, 10, 50 nM), CD14+CD11b+CD33+HLA-DRlow cells by flow cytometry is 90%. Turning to BOC1-m2 (Ser34) (natural protein), in assay [1], the Kd came out at 2.78 nM.

B1: CD200-His (ligand, UniProt P41217 31-232, looked up)
chain: QVQVVTQDEREQLYTPASLKCSLQNAQEALIVTWQKKKAVSPENMVTFSENHGVVIQPAYKDKINITQLGLQNSTITFWNITLEDEGCYMCLFNTFGFGKISGTACLTVYVQPIVSLHYKFSEDHLNITCSATARPAPMVFWKVPRSGIENSTVTLSHPNGTTSVTSILHIKDPKNQVGKEVICQVLHLGTVTDFKQTVNKG
notes: CD200 (OX-2), soluble His-tagged protein; Held on anti-6His Acceptor beads in the AlphaLISA; also called His-tagged CD200
With B1, the results for the Kd in assay [2] (both partners purified) and in assay [1] (both partners purified) were 1.56 ± 0.3 nM and 0.95 ± 0.27 nM, respectively.

(Values after publication PMC12401969, “The gut microbiota protein BOC1 exhibits immune checkpoint inhibitor-like activity by inhibiting myeloid-derived suppressor cell differentiation” (Frontiers in Immunology, 2025).)
